Results: patent US20150344565A1
“And” between values parts separate entries of the source, which are not always exact repeats. Equal entries are not always repeated.

Columns and labels:
[1] = target: Non-glycosylated recombinant human GM-CSF expressed in E. coli (human) (UniProt P04141); test: cell-based or functional assay
[2] = target: Glycosylated recombinant human GM-CSF expressed from human 293 cells (human) (UniProt P04141); test: ELISA on GM-CSF-coated wells, glycosylated GM-CSF, exp 1
[3] = target: Non-glycosylated recombinant human GM-CSF expressed in E. coli (human) (UniProt P04141); test: ELISA on GM-CSF-coated wells, non-glycosylated GM-CSF, exp 1
[4] = target: Non-glycosylated recombinant human GM-CSF expressed in E. coli (human) (UniProt P04141); test: ELISA on GM-CSF-coated wells, non-glycosylated GM-CSF, exp 2
[5] = target: Glycosylated recombinant human GM-CSF expressed from human 293 cells (human) (UniProt P04141); test: SPR (Biacore 3000) at 37 °C, antibody captured on anti-human F(ab')2, GM-CSF as analyte, 1:1 global fit

IC50 for inhibition of GM-CSF induced IL-8 expression (U937 cells), experiment C [1]: 2.2 nM and 343 ng/ml
EC50 [2]: 387 pM
EC50 [3]: 400 pM
EC50 [4]: 433 pM
Kd [5]: 30.5 pM
koff [5]: 2.2e-05 s⁻¹
kon [5]: 720000 M⁻¹ s⁻¹
Substance: Ab2, chimeric IgG1k antibody having variable regions from the mouse antibody LMM102
